These are literature values, as cited in PMC5338744.

In the series the target is VEGFR2 (KDR) (Homo sapiens) (UniProt P35968).
UniProt P35968, sequence (P35968 20-1356): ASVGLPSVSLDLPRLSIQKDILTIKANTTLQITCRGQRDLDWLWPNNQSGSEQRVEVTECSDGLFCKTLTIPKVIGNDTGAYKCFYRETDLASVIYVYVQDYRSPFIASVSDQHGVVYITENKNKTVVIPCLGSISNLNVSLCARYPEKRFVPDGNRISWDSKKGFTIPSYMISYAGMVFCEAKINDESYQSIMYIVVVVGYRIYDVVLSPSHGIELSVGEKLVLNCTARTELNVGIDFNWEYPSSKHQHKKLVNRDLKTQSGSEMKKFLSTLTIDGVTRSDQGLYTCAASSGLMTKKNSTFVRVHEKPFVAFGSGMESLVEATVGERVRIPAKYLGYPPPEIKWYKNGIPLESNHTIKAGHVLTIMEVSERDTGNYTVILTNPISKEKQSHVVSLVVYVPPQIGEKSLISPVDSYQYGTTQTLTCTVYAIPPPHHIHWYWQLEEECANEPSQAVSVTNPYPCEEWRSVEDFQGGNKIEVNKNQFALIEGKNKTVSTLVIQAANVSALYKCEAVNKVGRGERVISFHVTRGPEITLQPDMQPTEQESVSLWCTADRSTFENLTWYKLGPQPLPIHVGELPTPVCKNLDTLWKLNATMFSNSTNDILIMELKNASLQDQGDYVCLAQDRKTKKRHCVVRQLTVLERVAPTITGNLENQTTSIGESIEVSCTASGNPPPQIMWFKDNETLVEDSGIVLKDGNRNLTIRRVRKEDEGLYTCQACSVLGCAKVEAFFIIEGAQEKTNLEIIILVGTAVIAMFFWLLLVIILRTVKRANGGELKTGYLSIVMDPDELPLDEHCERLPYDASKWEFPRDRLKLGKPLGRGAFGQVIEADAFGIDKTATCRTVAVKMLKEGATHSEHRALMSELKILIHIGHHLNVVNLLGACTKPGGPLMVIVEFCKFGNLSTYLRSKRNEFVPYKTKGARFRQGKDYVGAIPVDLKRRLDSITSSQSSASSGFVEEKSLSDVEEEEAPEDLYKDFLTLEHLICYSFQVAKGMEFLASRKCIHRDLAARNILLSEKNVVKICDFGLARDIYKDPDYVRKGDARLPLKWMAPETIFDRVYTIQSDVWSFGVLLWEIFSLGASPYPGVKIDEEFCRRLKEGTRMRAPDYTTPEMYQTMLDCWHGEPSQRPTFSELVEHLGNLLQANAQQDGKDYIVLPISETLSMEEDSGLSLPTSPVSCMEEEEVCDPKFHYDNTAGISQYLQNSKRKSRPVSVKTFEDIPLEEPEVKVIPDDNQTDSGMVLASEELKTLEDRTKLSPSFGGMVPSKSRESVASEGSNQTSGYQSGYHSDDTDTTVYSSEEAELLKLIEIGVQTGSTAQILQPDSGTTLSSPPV

In the case of VEGF (from UniProt P15692), the Kd is 0.76 nM.
